Test: soluble on expression in E. coli; label from the status in PepcDB or PDB records

**Q.** For “SRSRPAGPALLLLLLFLGAAESVRRAQPPRRYTPDWPSLDSRPLPAWFDEAKFGVFIHWGVFSVPAWGSEWFWWHWQGEGRPQYQRFMRDNYPPGFSYADFGPQFTARFFHPEEWADLFQAAGAKYVVLTTKHHEGFTNWPSPVSWNWNSKDVGPHRDLVGELGTALRKRNIRYGLYHSLLEWFHPLYLLDKKNGFKTQHFVSAKTMPELYDLVNSYKPDLIWSDGEWECPDTYWNSTNFLSWLYNDSPVKDEVVVNDRWGQNCSCHHGGYYNCEDKFKPQSLPDHKWEMCTSIDKFSWGYRRDMALSDVTEESEIISELVQTVSLGGNYLLNIGPTKDGLIVPIFQERLLAVGKWLSINGEAIYASKPWRVQWEKNTTSVWYTSKGSAVYAIFLHWPENGVLNLESPITTSTTKITMLGIQGDLKWSTDPDKGLFISLPQLPPSAVPAEFAWTIKLTGVK”, which “soluble on expression in E. coli” value is on record?
**A.** soluble

**Q.** For “MGSDKIHHHHHHMEIGLIDIKGTLPCFENFGNLPTKIIHENNISKIKDLEMLIIPGGSIVESGSFTDEFKKQILDFDNYIVGICSGFQILSEKIDIGRKSPIPIIKEGLGLLNVEFSPLICTDLVKFNIENDNLFGKKNQLGHGFHCHTYGNIEITNNSTKIWTTSEIEKLNYKMVGKQNILSGVFKNKVYGTMVHNLLDNDFVVENFLKNMKIKDDEKQEIFKKNSILKEKLKDRSKISENFKKIESNDKKGIILLATGSESGKTFLSTSICSKLKGKTFVSKIGPDVRDIVPSLYLLREPMTKFSSIKLSDRGWSEPSEFLEFVKNSKFNNYIIEGVMGAFTGALNKKNYSGSEVSKILGFPVYIISSCSKTGIEGSFVECMAYHSLLKEMGVNVAGIVLNRVYNAELLEKVKKIANDLNIDLIGVNKLNVNVDNKRGLIPEVEIDYEEFCNATMKLDFEIDIPKINPEKINEDSKTFEEYLKIWSEKLININ”, which “soluble on expression in E. coli” value is on record?
**A.** not soluble

**Q.** With “MRRLAWLLPLLLLAGAVGALRYQWLDLPARWNPWLPLDVREPPNLLTRYKLWRLADDRSLCDAALATSQLRYQRVADDPPSATCPLSNSLRVRGAALELSSSFLASCPLAVSYALFERHVLQPAALDIYGQPLARVEHVGSFACRNVYNREDGRRSQHASANALDISGFRLADGRRIRLATDWAGESADGRFLRRVRDGACASFNAVLGPDYNAAHRDHFHLDMGLWKVCRLEHHHHHH” as the sequence, how does the “soluble on expression in E. coli” value read?
**A.** not soluble

**Q.** Which “soluble on expression in E. coli” value does the source give for “MKSKVAIVRTKPSTVLEDYHRLMNLAEYQNYISKDVDTALKINISWHFFYPGSSTTPWQLEGVIRALKRDGYNPELIHGCHNRTVVIDAHLGERENKQINVIKAHNLRNIHLYEGEEWIDIREAVGDLTKKFLCLNEVYPKGFSIPKRFIGENIIHLPTVKTHVFTTTTGAMKNAFGGLLNEKRHWTHPVIHETLVDLLMIQKKIHKGIFAVMDGTFAGDGPGPRCMVPHVKNVLLASADQVAIDAVAAKLMGFDPLKDCKYIRLAHDAGLGCGDVRQIEIVGDVDALNENWNFVGPYKKMTFASKCQHLIYWGPLKKPVEWTLKTILAPWSYIASVVYHDMYWYPKNYGRVEEILNSDWGRLFANWEQLQLPADDLSVPGWEHVGDKPLKLDKETSKMIRKAFRVLGTAIREAPEFSAKKSKKACK” here?
**A.** soluble

**Q.** Which “soluble on expression in E. coli” value does the source give for “MGSDKIHHHHHHMSNTLLFRPNEARALSALFRTGGLTRASLARELDLTRSTTGTLVQNLVDAGLARERESTTGNEAEPKVGRPGIVVEIAGSGVFFLGAYIGVNRIDVIAIDLSGTVRAKATRPFSGAASRPAQAMELIVALVDEVRRTLPPGARPHGLNVALPGFLDGDGETFHAAILGWHGVSLAQPISESIDLDVPVLLENDANAVAVAETYRSAPPDGKGDDSLVVLIENGVGGGIVSNGKLHRGQLGGAGEIGHMPIGEAGFVYDAVRPGRWETFIGKDALLARYAHISGVIGSLDAFIAVLASGDPTALACARDWARWLVRGLATLACVLQPGRIILAGSVSAIYPFVAEQTEALLAASLIEGYPTPRVETSSTGNDGPALGAAYLLHQAMLAGNTRPHMRDVAVL” here?
**A.** not soluble

**Q.** Which “soluble on expression in E. coli” value does the source give for “MSLENTTQIPESELHNLGLTDEEIQEFNQYLIDESLFQETVETSPIVVSDNEDAAQDPGFGLFTTNPVKHTDEHIGALYFSDLPGISNLTCTANYIGGKFWTTAHHCVEGRSRFVGFIEQSDGQYAGIEHVYTKSSDYDIALIKVGSGIDAEQFSLTRSRPAVGKMLEVVGFAVVNPFSSRATMEVTNSNTVANYPMSNLYYKDVFSAKPAGSFPYVISGGDSGAAVWSGETMYGIASGSNGSTKNLAANVGPHVSWIEQTMQNNSNSSPYEILQAFRGGLATSYPKYNQIRDLVDSSEGHHHHHH” here?
**A.** soluble

**Q.** Which “soluble on expression in E. coli” value does the source give for “MGSDKIHHHHHHMYYRKRFCVGRNNERRMKAMARDTGLDHLGAMRAFVRVVEMGSFSAVAKEMHVSTSTVARKITAIEEALGVALLHRSTHSVTLTEAGHIYLERAVTLIADLDDTLRVVAELNAQPSGPLKLTAPVAFGRRHLAPLIAPFLARYPTIQLDVRLTDNHNDLVAGGYDLDIHEGENYLDNLVVHRLSRNDSILCATPGYLDRCGRPATPDDLLHHNCLRYVHPEGDPRWELVRGDARHSVLPAGNLVTDHSELLLEATCAGLGIAEFEIWLVRDLLASGRLEAVLPRYRLHNKLTGEHIYIAYLANRRSSAKLRVLKDFLADQLAHIGELSEVELMKIRDAGA” here?
**A.** not soluble

**Q.** With “MGSDKIHHHHHHMKEIALLAIARYGDLIQTTPLVRALRRAHPGARITAIVEDRFCGILPLLPGIDRTIVLNKQDIAWDIATGDSPLVPYLKMDEFVRKLEEGSYDLLVNITCSRLSAFFASCVTSRRRTGISADEAGERNIVTLWGQYIFSWFNDNIRKYNAINLVDIFTRLGEVPPDGRRVELVATEKGERFADDFLDRHGLRGQRLVGLQLGASEATRIWPAEHFARISDRLQRELGVRTILFGAPVEKHLAGQAMAAMEMPAVDAVGETGIEELYSLVGRCAALVSNDTGTMHFAAAAGVPAVMLCIGPAFFRCTGPYGEGHLALQPDLPCSPCPYSLVCADPVCRDTISPEAVFSACRMILAGADGLGNADFSGVRVYRSSFAPDGYLTWDGLFNVDAWEEEQVKRRESAWKGCFDGSTKGCGAPGDETLRAFWELTGRGIEATEAIIRAARKKPLPVDEIRRLGEKESAIEAEVKLMGYRHEPLAPVTEFLTLMRENITGEELGRIARETRSLYETGRCLAALL” as the sequence, how does the “soluble on expression in E. coli” value read?
**A.** not soluble

**Q.** With “EMDRRAALSGAAGAFMAACDEAVRELLLAMNFSDHDAEAIITGAAPPQLEHAASGVVSLVLRLKSSVLSHYIKHLNNAAARSQAAAASTAAVDGNAEDAADKHGAKATSAAKAPPAAGGGAGDAADQQLSTGEACLVQLQLYGGVGDALLQLLRSKLRGSACQLWALAHIVHPHPSRSEKESLAAYTGKSTKQVTDWFTNWRARHWRPAIMALQKGAAGGAAGGSLG” as the sequence, how does the “soluble on expression in E. coli” value read?
**A.** soluble

**Q.** For “NEKFRPEMLQGKKVIVTGASKGIGREIAYHLAKMGAHVVVTARSKEALQKVVARCLELGAASAHYIAGSMEDMTFAEEFVAEAGNLMGGLDMLILNHVLYNRLTFFHGEIDNVRKSMEVNFHSFVVLSVAAMPMLMQSQGSIAVVSSVAGKITYPLIAPYSASKFALDGFFSTLRSEFLVNKVNVSITLCILGLIDTETAIKATSGIYLGPASPKEECALEIIKGTALRQDEMYYVGSRWVPYLLGNPGRKIMEFLSAAEYNWDNVLSNEKLYGRWA”, which “soluble on expression in E. coli” value is on record?
**A.** soluble

**Q.** With “MENVTESKELERLKRIDRMKTEFIANISHELRTPLTAIKAYAETIYNSLGELDLSTLKEFLEVIIDQSNHLENLLNELLDFSRLERKSLQINREKVDLCDLVESAVNAIKEFASSHNVNVLFESNVPCPVEAYIDPTRIRQVLLNLLNNGVKYSKKDAPDKYVKVILDEKDGGVLIIVEDNGIGIPDHAKDRIFEQFYRVDSSLTYEVPGTGLGLAITKEIVELHGGRIWVESEVGKGSRFFVWIPKDRAGEDNRQDN” as the sequence, how does the “soluble on expression in E. coli” value read?
**A.** soluble

**Q.** With “MLNSKPVSYQVLKFILKHLDPSLRIQLCLVCPSIHTLEKSTPSYIHYLKITDNSVTVNRVTCQITVTDRKVDYQFDINQFPSISGTVELRNSRNNLTKTMKYLLDKLFKGRTVKVGQLAISCENPLRVPLAARINVNVLEVFDSRSLSAASSLIANSCLPLSLIKLPFKSLLKTNNNPITSIVNRKTKKWHFKAPTTAPHNLRRVLTFLQNRRVTTAHFERGHFCFSIVIEYFMGDSDIENGTYYTFDTTRGAVFVVMERSRKRYKAMLEDGSSRRSNQLTIKKNSTSKLVISKIQQGDAWILGFKIERRRLFPTFF” as the sequence, how does the “soluble on expression in E. coli” value read?
**A.** not soluble

**Q.** For “MSIAEFAYKEKPETLVLFDVDGTLTPARLTVSEEVRKTLAKLRNKCCIGFVGGSDLSKQLEQLGPNVLDEFDYSFSENGLTAYRLGKELASQSFINWLGEEKYNKLAVFILRYLSEIDLPKRRGTFLEFRNGMINVSPIGRNASTEERNEFERYDKEHQIRAKFVEALKKEFPDYGLTFSIGGQISFDVFPAGWDKTYCLQHVEKDGFKEIHFFGDKTMVGGNDYEIFVDERTIGHSVQSPDDTVKILTELFNL”, which “soluble on expression in E. coli” value is on record?
**A.** soluble

**Q.** Which “soluble on expression in E. coli” value does the source give for “MGSDKIHHHHHHETNNLKTKEDMYKYFGTSKSMLTHVYSYMPQGYQLFATSGGIFTEDRYSMRDCASDDGEFGAYADNIQNTNNGNWSPIKTYDDSWTLYRGIRAANSFIAEIAQVDFTRYEHDGQYTNWMKQLKYFPYEARVLRAHYFFELARRYGDIAMPLEVLTEEEANTIGKTPFSEVISFIVSECDDAANNLPDSYVNEPGAEIGRVTKGFAMAVKSKALLYAASKLHNPSMDTELWKKSAKAAIDIINTGLYSLDPQESANNLDSKEVVLMRINGDDSDFEMFNLPLRMTAGTRTSSLIPYSNYPSQNLVDAFETVNGYKVTLENTGWVCEDPAFDPQSPYENRDKRFYRAILANGMSFKDYTIETFKGGADDGIVSQGGSPTGYFLRKYIQEATSFEPGKEAVSKHHWVIYRYAETLLTYAESMVNAFNDVNYTDETYKYSALWAINEVRKNADMPLIPSMGKDEFMERLYNEWRVEFAFEDHRFWDVRRWKIADTTQRELYGVKIEKQADGTFNFYKNLYETRNWRDCMYLYPIPQSELYKNTNLNPQNTGW” here?
**A.** not soluble

**Q.** Which “soluble on expression in E. coli” value does the source give for “MGSDKIHHHHHHMQQLTKPKKIAIIGAGFRGITAAKIFQDAGIEFVILDKNDATGGVWRTFANQSSYVQIPEPEYRFDMDYPNGLPSEFTPRDEILAHAERFINVHGIGKHIIFKSEVFSIEDISDSKYRVYYKHDNANKSLEVDGIYYAGGRLHKRRTVHFPGEKNFQGLIRYGISDDMPISEYRGKKVAIIGCGAFAMENARTALLNGATHVTIIAKTINIVLPRMVMFWLNSMRLAPVAPLLKMSWKMYDWAGTNFMKENLDGFSINQRTVPIISDFIFLAHKVGKAEFKKDSIDFIDSNSVVTSDGTKIEADIILKCVGFEGQMDVFKQVYPPFEAVNWIWVNKKTNFVLDQDPEFGMTTKATKLMTSGSTLLLTKIAARVFAMSLINPSKFEQIIPVLPTSQNAGYNISYHMGSLSKLLVANKDIKKFILRTSAKKSKSMIEKGGNGKYLEFCKREWKQQCEALGVEEVEYPFVFPWWILLWENWQQLVNRFFLAAFPEQNIVRDIQPEDVEWSFISAES” here?
**A.** not soluble

**Q.** With “MGSDKIHHHHHHMHTESIKTPTDNHAKGAVSSTVSPTTYTPDLPSDEEDYSTLINMLPPVAPSSTPTEDESTESDNMPTDALHDFSQSLETQYGIAPGVNIQQQRQQRAEANGLTFACVGRQPVDDIWQIYPARKHKLEAYSLALDIAESVGLERYVEHVVNTPVDYAYRMLPLENAVENEMVKMCYDLLMLLQTVDSTSYPSVSITLSFLLDAEKIDDVTLVKLFRLIRLVRYIRQGAHHDNV” as the sequence, how does the “soluble on expression in E. coli” value read?
**A.** not soluble

**Q.** For “MAQFIDRRLNGKKKSTVNRQRFIRRHKDQIKRAVSDAVNQRSVTNTESGESISIPKGDISEPVFHQGQGGIRERVLPGNDQFIKGDKIERPQGGNGGGGAGDGDASADGEGQDDFIFQISKDEYLDILFEELELPNLEKNQVQKITEWETHRAGYQTAGVPSNIDIVRSLQQSLARRTAMTAGKKRLLSELEQELETIKNSEPSQPLAVRKMQEQIEELRERIKHVPYIDSFDLRYKNYERTPIPSSQAVMFCLMDVSGSMDQATKDIAKRFYVLLYLFLTRTYENVEVVFIRHHTQAKEVNEHDFFYSQETGGTMVSSALKLMRDIVAERFPANEWNIYAAQASDGDNWADDSPKCKELLTSSILPTCQYYSYIEITKRHHQTLWTEYDKLAQGFDNFAMKNIRSVEDIYPIFRELFQKQLALEHHHHHH”, which “soluble on expression in E. coli” value is on record?
**A.** not soluble

— the DeepSol protein solubility set
